Measurements reported in publication doi:10.1101/2023.12.12.570754.
pKd: −log10 of the molar value.

Columns and labels:
[1] = biological target: full-length human Ku heterodimer (Ku70 1-609, Ku80 1-732) (human) (UniProt P12956); test: ITC
[2] = biological target: Ku70-Ku80 heterodimer deleted of its C-terminal regions (Ku70 1-544, Ku80 1-551) (human) (UniProt P12956); test: ITC

- pKd [1]: 5.93
- pKd [2]: 6.08
- fold weaker affinity than with the 42 bp DNA [2]: 7 fold
Substance: RAG2c peptide, containing motifs 1 and 2 of the RAG2 C-terminus (RAG2-KBM)
